Values belong to the binder of their own block, whether it stands above or below them.
How the values were obtained:
[1] = molecular target: T1, Macaca Fascicularis GP130 extracellular domain expressed with a C-terminal myc-myc-hexahistidine tag (Macaca fascicularis, UniProt P40189 23-619 (human entry)); assay: SPR, bsAb captured by anti-hFc, 25C
T1 construct: also called mfGP130-MMH; mfGP130-mmH
T1 chain: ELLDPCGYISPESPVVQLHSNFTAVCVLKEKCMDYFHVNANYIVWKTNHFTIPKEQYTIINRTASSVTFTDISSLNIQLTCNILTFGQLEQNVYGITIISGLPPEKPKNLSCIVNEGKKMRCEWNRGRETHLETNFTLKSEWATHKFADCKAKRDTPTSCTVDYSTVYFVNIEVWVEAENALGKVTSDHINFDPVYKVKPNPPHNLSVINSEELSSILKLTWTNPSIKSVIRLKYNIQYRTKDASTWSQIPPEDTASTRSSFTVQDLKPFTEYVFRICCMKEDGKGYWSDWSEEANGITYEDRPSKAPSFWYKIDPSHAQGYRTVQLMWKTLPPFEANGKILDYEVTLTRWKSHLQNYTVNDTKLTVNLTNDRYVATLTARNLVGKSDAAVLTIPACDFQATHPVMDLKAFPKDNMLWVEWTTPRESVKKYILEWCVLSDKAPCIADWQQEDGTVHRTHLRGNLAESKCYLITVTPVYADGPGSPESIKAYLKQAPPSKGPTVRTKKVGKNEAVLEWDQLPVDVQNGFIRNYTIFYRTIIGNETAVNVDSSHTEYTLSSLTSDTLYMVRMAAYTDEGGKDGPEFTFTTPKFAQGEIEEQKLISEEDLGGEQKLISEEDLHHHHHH
In short: (§1)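 Anti-hFc-captured bispecific antibodies received 3-fold serial dilutions of LEPR or GP130 (100 nM–3.7 nM) in HBS-ET, pH 7.4, injected for 4 min with 10 min dissociation at 25 °C or 37 °C. ka and kd came from a 1:1 binding model with mass transport limitation, and KD and t½ were calculated from these rate constants.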

[2] = molecular target: T2, human GP130 extracellular domain expressed with a C-terminal myc-myc-hexahistidine tag (human, UniProt P40189 23-619); assay: SPR, bsAb captured by anti-hFc, 25C
T2 construct: also called hGP130-MMH; hGP130-mmH
In short: as §1

[3] = molecular target: T1, Macaca Fascicularis GP130 extracellular …; assay: SPR, bsAb captured by anti-hFc, 37C
In short: as §1

[4] = molecular target: T2, human GP130 extracellular domain …; assay: SPR, bsAb captured by anti-hFc, 37C
In short: as §1

[5] = molecular target: T3, mutant human LEPR (Y1141F) on HEK293.STAT3.Luc.GP130.hLEPR (Y1141F) cells (human, UniProt P48357 22-1165); assay: cell-based or functional assay
T3 sequence (looked up): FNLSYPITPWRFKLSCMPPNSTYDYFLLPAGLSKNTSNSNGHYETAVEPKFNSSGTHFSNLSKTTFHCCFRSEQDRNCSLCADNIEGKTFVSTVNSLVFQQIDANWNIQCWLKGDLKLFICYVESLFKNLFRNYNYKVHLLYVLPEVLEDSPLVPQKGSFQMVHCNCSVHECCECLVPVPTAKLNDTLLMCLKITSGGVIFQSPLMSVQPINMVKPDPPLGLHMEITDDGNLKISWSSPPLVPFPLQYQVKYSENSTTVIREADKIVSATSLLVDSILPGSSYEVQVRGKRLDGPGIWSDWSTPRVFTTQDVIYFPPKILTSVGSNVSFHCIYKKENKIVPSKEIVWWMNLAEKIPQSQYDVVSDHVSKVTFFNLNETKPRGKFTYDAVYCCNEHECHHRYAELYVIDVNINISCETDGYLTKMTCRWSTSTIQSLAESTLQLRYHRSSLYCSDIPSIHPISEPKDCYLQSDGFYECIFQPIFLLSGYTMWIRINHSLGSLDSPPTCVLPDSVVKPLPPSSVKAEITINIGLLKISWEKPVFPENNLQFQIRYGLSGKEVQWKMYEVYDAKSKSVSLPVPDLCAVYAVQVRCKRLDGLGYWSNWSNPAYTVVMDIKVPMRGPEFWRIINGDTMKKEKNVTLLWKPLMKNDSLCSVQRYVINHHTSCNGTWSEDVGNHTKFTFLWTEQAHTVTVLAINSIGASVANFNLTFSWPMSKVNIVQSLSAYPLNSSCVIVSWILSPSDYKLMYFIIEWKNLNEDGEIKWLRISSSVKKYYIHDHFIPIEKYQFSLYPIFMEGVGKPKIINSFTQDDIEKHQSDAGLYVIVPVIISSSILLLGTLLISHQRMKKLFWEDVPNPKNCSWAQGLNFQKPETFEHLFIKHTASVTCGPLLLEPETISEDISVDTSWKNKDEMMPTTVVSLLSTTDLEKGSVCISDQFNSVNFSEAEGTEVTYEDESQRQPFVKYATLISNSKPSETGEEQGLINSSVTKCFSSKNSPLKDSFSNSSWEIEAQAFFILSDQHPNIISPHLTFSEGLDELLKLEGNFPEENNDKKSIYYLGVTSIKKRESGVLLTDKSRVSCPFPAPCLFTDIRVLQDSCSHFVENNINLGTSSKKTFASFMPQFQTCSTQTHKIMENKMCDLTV

100 nM mfGP130-MMH Bound (RU) [1]: 21 RU | Kd [1]: 104 nM | koff [1]: 0.00305 s⁻¹ | kon [1]: 29400 M⁻¹ s⁻¹ | t½ [1]: 3.8 min | 100 nM hGP130-MMH Bound (RU) [2]: 12 RU | Kd [2]: 140 nM | koff [2]: 0.00426 s⁻¹ | kon [2]: 30300 M⁻¹ s⁻¹ | t½ [2]: 2.7 min | 100 nM mfGP130-MMH Bound (RU) [3]: 18 RU | Kd [3]: 179 nM | koff [3]: 0.0125 s⁻¹ | kon [3]: 69800 M⁻¹ s⁻¹ | t½ [3]: 0.9 min | 100 nM hGP130-MMH Bound (RU) [4]: 12 RU | Kd [4]: 248 nM | koff [4]: 0.0148 s⁻¹ | kon [4]: 59700 M⁻¹ s⁻¹ | t½ [4]: 0.8 min | EC50 (M), STAT3-luciferase activation of HEK293.STAT3.Luc.GP130.hLEPR (Y1141F) cells, 10 nM leptin [5]: 2.11e-09 M
B1: bsAb21236D (bispecific antibody, V domains shown)
VH 1: QVQLQESGPGLVKPSQTLSLTCTVSGGSISSGGDYWSWIRQLPGKGLEWIGYIYYSGSAYYNPSLKSRGTISIDTSKNQFSLKLTSVTAADTAVYFCVKLRFLEWFLGGWFGPWGQGTLVTVSS
VH 2: QVQLVESGGGLVKPGGSLRLSCAASGFTFSDYYMTWIRQTPGKGLDWVSYISSSGTNKYNADSVKGRFTISRDNAKNSLYLQMNSLRAEDTAVYYCVRDPPWGMDVWGQGTTVTVSS
VL: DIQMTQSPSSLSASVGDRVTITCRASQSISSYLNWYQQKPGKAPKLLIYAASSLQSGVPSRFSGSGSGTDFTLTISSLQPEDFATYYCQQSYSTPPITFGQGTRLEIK
notes: LEPR x GP130 bispecific with common light chain; also called H4H21236D; bsAb21236 (LEPR × GP130)

100 nM mfGP130-MMH Bound (RU) [1]: 18 RU | Kd [1]: 53.4 nM | koff [1]: 0.00213 s⁻¹ | kon [1]: 39800 M⁻¹ s⁻¹ | t½ [1]: 5 min | 100 nM hGP130-MMH Bound (RU) [2]: 17 RU | Kd [2]: 55.2 nM | koff [2]: 0.00274 s⁻¹ | kon [2]: 49600 M⁻¹ s⁻¹ | t½ [2]: 4 min | 100 nM mfGP130-MMH Bound (RU) [3]: 21 RU | Kd [3]: 215 nM | koff [3]: 0.00792 s⁻¹ | kon [3]: 36900 M⁻¹ s⁻¹ | t½ [3]: 1.5 min | 100 nM hGP130-MMH Bound (RU) [4]: 19 RU | Kd [4]: 144 nM | koff [4]: 0.00879 s⁻¹ | kon [4]: 61100 M⁻¹ s⁻¹ | t½ [4]: 1.3 min | EC50 (M), STAT3-luciferase activation of HEK293.STAT3.Luc.GP130.hLEPR (Y1141F) cells, 10 nM leptin [5]: 2.46e-09 M
B2: bsAb21237D (bispecific antibody, V domains shown)
VH 1: EVQLVESGGGLVQPGGSLRLSCAASGFTFSNYGMTWVRQAPGKGLEWVSAITGGGGSTYYSNSVKGRFTISRDNSKNTVYLRMNSVRAEDTAVYYCAKYKWNFVDDWGQGTTVTVSS
VH 2: B1 VH 2
VL: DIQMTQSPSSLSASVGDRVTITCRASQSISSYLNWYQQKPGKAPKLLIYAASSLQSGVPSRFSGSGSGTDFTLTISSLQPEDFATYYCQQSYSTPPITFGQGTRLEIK
notes: LEPR x GP130 bispecific with common light chain; also called H4H21237D; bsAb21237 (LEPR × GP130)

— patent publication US20240158497A1 (published 2024)
